Data as given in PMC5605622, “Agdc1p – a Gallic Acid Decarboxylase Involved in the Degradation of Tannic Acid in the Yeast Blastobotrys (Arxula) adeninivorans” (Frontiers in Microbiology, 2017).

Experiments:
[1] = substrate: O=C(O)c1ccc(O)c(O)c1; test: purified protein; type: biochemical, Blastobotrys adeninivorans; conditions: 50 mM potassium phosphate pH 6.2, 40 °C
[2] = substrate: O=C(O)c1cc(O)c(O)c(O)c1; test: purified protein; type: biochemical, Blastobotrys adeninivorans; conditions: 50 mM potassium phosphate pH 6.2, 40 °C

B1: Agdc1-6hp (Agdc1p, gallic acid decarboxylase) (Blastobotrys adeninivorans) (protein)
chain: MTTSYEPWPQLYSHLNGTNEEVLDRMKVAELCKGWSVYRDASEWANFKEMFTPDANIWTTWSGAQTIDSFIQISKDGKDKGAFIMHRECGTLVDLNPKTQRAIGKMKTTITQRFEYEGVPFDIDCDNYFIFFCLKDSNGDWKARWYKVFYVKDKFVPVGVPTAENMEKLAKLFSKENLEQYPWGYQYLAVAQANLGYPIDKKLPTWKNELYHTMYDAMKEWMEGKEIDLHW
notes: full-length ORF (696 bp, 232 residues as printed), C-terminal 6xHis tag kept, expressed in A. adeninivorans G1212, IMAC purified
In the case of B1, the Km [1] is reported as 3200 ± 200 µM, the kcat [1] is reported as 44.0 ± 3.4 s⁻¹ and the Km [2] is reported as 700 ± 200 µM. It also gave a kcat [2] of 42.0 ± 8.2 s⁻¹.
